Results published in the supplement of paper PMC12042874.
± gives the uncertainty stated by the source.

Test: amyloid nucleation score (Sup35N fusion, yeast selection) (log enrichment); library NNK3; higher = more nucleation; inactive = no reads after selection
Procedure, shortened: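 Peptides of 20 random codons fused to Sup35N were expressed in psi-negative yeast, induced 24 hours with 100 μM copper sulfate, then grown 7 days at 30°C on medium lacking adenine and uracil. Input and output plasmid inserts were Illumina-sequenced. Nucleation score is the DiMSum log enrichment of output over input reads, centred on the mode score of non-aggregating sequences, excluding sequences with under 100 input reads. Random libraries had three technical output replicates.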

Row | Substance | amyloid nucleation score
1 | GIVILLNYHPIRLF | 2.2 ± 0.068
2 | CKTLFFCMWNCFCFTVYSWF | inactive
3 | TKSMVKNLHALPSIKRGVFV | inactive
4 | QYSMVVVV | inactive
5 | GWFRSQSMPIALEYLTGPGS | inactive
6 | GEYFCRNLNHID | inactive
7 | PSSFKMY | inactive
8 | VYAKVMSCGYGQRCVMEWFE | inactive
9 | IMKCICVYVFINCHKWDVHA | inactive
10 | TCRPFIT | inactive
11 | HIWTIRVMFWRELRLLITPI | inactive
12 | GITIWLYNPYFL | inactive
13 | KCISSRARK | inactive
14 | RVKSKDANSGGSMVCASRVL | inactive
15 | ESGNSSAFMAVMRISGTDVV | inactive
16 | TNDTLFFVTSLVADPVERIS | inactive
17 | NIVISYPP | 0.749 ± 0.11
18 | PSGTFFNSVVYGRWYKLKRK | -0.34 ± 0.93
19 | HISCMCLIYIV | 2.24 ± 0.088
20 | VEAEHYSRRNEKVFRSNMKW | inactive
21 | DRTTSVGPYSAVLGFMCDWW | inactive
22 | ASDSCGG | inactive
23 | QRRAL | inactive

Row | Substance | amyloid nucleation score
24 | QNGDKHYG | inactive
25 | VRMRDFKENARRMVP | inactive
26 | NLDYLVNLLCDYLES | -0.703 ± 1.9
27 | NFLVSIHVFFYCWLSMFTYW | inactive
28 | CFPIPVWRGDLNGAPRYAQM | inactive
29 | TRCYRASE | inactive
30 | KVNAFTCTKSFGLCVSESFT | inactive
31 | NVYNMYS | 0.945 ± 0.22
32 | VTNQSFDQPESLVEM | inactive
33 | KRLAKWGTMYLV | inactive
34 | NHRSG | inactive
35 | KVCNSF | inactive
36 | CADFFQDCAHKIFKNNRITG | inactive
37 | GSNRQTVRFNWS | inactive
38 | ITGVFCTSHVRFNINFKLWE | 1.97 ± 0.063
39 | GYDVRL | inactive
40 | IMNCVLMKDIWYSVFNHR | 2.44 ± 0.067
41 | VKSFFSKGSCDNDTNINRRS | inactive
42 | LVCSLLQASNWCVISSS | 0.753 ± 0.11
43 | VFGKCLCTNCLEEVCIRFDL | inactive
44 | RWWKKTIQIFKCFVKHLEWG | inactive
45 | STLGRKVRFTVVLITIGVLT | inactive
46 | MEWFFVSYPLITGWMGS | inactive

Row | Substance | amyloid nucleation score
47 | GALSYKSKSWRS | inactive
48 | ANKSTIGLFMRLPYCPGSN | -0.148 ± 0.96
49 | SRCFWQSLEVTVILGSCINT | 1.64 ± 0.11
50 | GNFAM | inactive
51 | LVSHSTMLPVSFFAHYRGEV | inactive
52 | THMATNLAGMYREAHGSGGI | inactive
53 | MCYQNMR | inactive
54 | CAKDMMCRVYMSLLLHLGVD | inactive
55 | IFVLVYNISSNTGNYSIGFV | 0.934 ± 0.15
56 | YDLRIYSKRVDPF | inactive
57 | IYKSTFFKVRTSGPGRHFGF | 0.186 ± 0.37
58 | YMEAC | inactive
59 | SRVRNDWYRVKVMGANVVGY | inactive
60 | YTMLSVCGVYICYKVYSMCW | 0.527 ± 0.4
61 | MNRLNPRYMMIKYMDIQKWW | inactive
62 | MYRCKKGGLCKLSGCTSKAL | inactive
63 | VRMSRYSEWQDFNIPIEVIV | 0.776 ± 0.16
64 | NYDVPSDLRWEMLWVAYCRR | inactive
65 | CVCVGDSDYCSQSVCVTSYR | inactive
66 | QAKGIRYVGGLTWYNH | inactive
67 | SQDFKLPSLSTFYRHGMEPS | inactive
68 | FFNRGKVAETGFIWSMVVV | inactive
69 | HYYVTVTHGS | inactive

Row | Substance | amyloid nucleation score
70 | FVLVHSFLECHYIHVTTERL | inactive
71 | YRHPTIECWSKMRCALVVCT | inactive
72 | VRSQGLHRRVFFIATGIKLG | inactive
73 | NKPCYLSSFPQCDHFFVWTD | inactive
74 | HQVGYGLHGPG | -0.539 ± 0.96
75 | CNHLSSTCFT | inactive
76 | RYNGTGIKYWKTY | inactive
77 | SFLTKSQKTNCGSLKEMCVG | inactive
78 | RGVYNEHFCCGFSMWEPING | 2.3 ± 0.067
79 | RWSTLIVTCSAGPSDFVCDG | inactive
80 | KITLDYRLGHVDRQTTISVK | inactive
81 | MKCCFSTLIPAKYNLDTLIL | inactive
82 | HYLQS | inactive
83 | SITYCWLHR | 1.77 ± 0.078
84 | MCNMCR | inactive
85 | LLGSSFFIRLFWTSSSFAAK | inactive
86 | GYRLRYNFVVFLM | 1.02 ± 0.21
87 | MESRGALYLSFRGRNCSSTQ | 0.371 ± 0.19
88 | VHIYSCYTRALDGNGAHSNN | inactive
89 | KEWVMRLSVGYIDSFHRFAW | inactive
90 | VLLYDECMMFVNSLMFTNSE | -0.501 ± 0.66
91 | NFLRCVHFLKFFMDFNGTSG | inactive
92 | GSWSVRLPLIWTKY | inactive

Row | Substance | amyloid nucleation score
93 | TKFIMKRLLVERVSCFLRSH | inactive
94 | LYNYAVSISTLIH | 0.971 ± 0.2
95 | RNSIMSSDWSHSGYGS | inactive
96 | VFMIVRQEGSSDFFFDFSSV | 1.42 ± 0.11
97 | TRRGSDLPSVLAMFLSKSTR | inactive
98 | FTSNAESTLWTRPRNYRNVS | inactive
99 | VAGSRCMDAWVKWCMVIRMF | 0.247 ± 0.25
100 | RHRLAHMRNKWRGQVHCPKG | inactive
101 | IMNSPKGYTILWRGSLRGIQ | inactive
102 | CDEVLTDKLVWGREFILWSD | inactive
103 | APWVMLVVSFPRKESRSFGM | inactive
104 | TIWSCMCVMWITRPSNTRRP | inactive
105 | FGGVGAW | inactive
106 | DIFVNAV | inactive
107 | FLRLHLFHSWTISLSSYRSV | inactive
108 | WINNIAPPYGQ | inactive
109 | SVIYIWDG | 0.425 ± 0.43
110 | YTLAFECLPSLTMQVRNWMM | inactive
111 | DGDYSWGFVIRCHGPRSWSR | inactive
112 | PATLQSPISSK | inactive
113 | SCSIVDWSLMIVTYLCWLTN | inactive
114 | NKFMIGVRMASGTL | inactive
115 | SNCFPLSFWIR | -0.88 ± 1.3

Row | Substance | amyloid nucleation score
116 | FAGEATVDTWTIFMCVIRGW | -0.225 ± 0.53
117 | VSCMLLSRDLCLQSFIWMLL | inactive
118 | NIMYLIWWILGKRHVCNPWE | -0.805 ± 1.1
119 | KRFTLFSMIYGRV | inactive
120 | FMTLMVTLYLRLYSRSYGPQ | inactive
121 | MVQTKMSQFKSFEFARVMWH | inactive
122 | NIDNMSMVRILFNT | 1.44 ± 0.11
123 | CYIGCNLEILNRRDKPFIIR | inactive
124 | GIDDDCARHIYWGRFLIGSC | -0.241 ± 1.1
125 | GWSDRFSMLYSFLLLLWKSP | inactive
126 | EFITSYMFSFVYVKNLWCKY | inactive
127 | DGACVSSRLSWGLVYMKKCS | inactive
128 | GYYNSYQAELMTTACSDYVD | inactive
129 | TCSTGAGNFCVCDFRLVRMR | inactive
130 | WRSKLLM | inactive
131 | ADGWFEIFKGYSAPGAHSVL | -0.48 ± 1.1
132 | CLELK | -0.204 ± 1.1
133 | NINIY | -0.302 ± 0.96
134 | YCDNYYSLMSTTEEFPRVCV | inactive
135 | GCARLAIMSKLPSCW | inactive
136 | GVLMNHIELL | inactive
137 | FSRLFCNSALCIMRFVNTSS | 1.52 ± 0.088
138 | HLKCPRERLT | inactive

Row | Substance | amyloid nucleation score
139 | WVHSVKENVSCGSRF | inactive
140 | LCPHPPFLCLVQQRFTTGSG | -0.123 ± 0.33
141 | HSRMWVTGLVSCVSGYMQVV | inactive
142 | RQYWCFYQSWNSLG | inactive
143 | ILVKIVSWVHLKRTVGTDQD | inactive
144 | DSQVSTTGVMEDRYLPILCF | inactive
145 | KIQTNCNFTC | 2.5 ± 0.067
146 | YVYWREFGACMGSQQWVVRV | inactive
147 | GISMRRNFSLNKCCSAQSLF | inactive
148 | LSSFRPSYEYYLRDISAMSW | inactive
149 | NFSFELMKDHYIGLQMVV | inactive
150 | HVNMSNIVLVLFSNSFNMHE | 1.75 ± 0.082
151 | FKRCSSIVRGWSS | inactive
152 | SIKLGILEMCKA | inactive
153 | HELLMVSENVRCDAKSHG | inactive
154 | PLNDNRRVPAISVFKECQTS | inactive
155 | PAELGVVSMCGFLGSAAYQE | inactive
156 | YLCYMEYVH | inactive
157 | EGYACIVYCLGPINLLMWCT | inactive
158 | NLFYDFFDYMVSRARGGRVC | inactive
159 | SVFDMDSMGTS | inactive
160 | GTWNVKAGGPYFKVVT | inactive
